US20110286916A1 (published 2011)

B1: N1wc633 (scFv, V domains shown)
VH: QVQLQQSGAEVKKPGASVKVSCKASGYNFTGYYMHWVRQAPGQGLEWMGWINPNSGGTNYAQKFQGRVTMTRDTSISTAYMELSRLRSDDTAVYYCATDSFDYWGRGTLVTVSS
VL: QAVLTQPSSASGTPGQRVTISCSGSSSNIGSYTVNWYQQVPGTAPKLLIYSNNQRPSGVPERFSGSKSGTSASLAISGLQSEDEADYYCAAWDDSLSDVLFGGGTKVTVL
notes: phage scFv
B2: hN1S3-001 (scFv, V domains shown)
VH: EVQLVQSGAEVKKPGASVKVSCKASGYNFTGYYMHWVRQAPGQGLEWMGWINPNSGGTNYAQKFQGRVTMTRDTSISTAYMELSRLRSDDTAVYYCATDSFDYWGQGTMVTVSS
VL: not shown
notes: phage scFv
B3: hN1S3-023 (scFv, V domains shown)
VH: EVQLVQSGAEVKKPGASVKVSCKASGYNFTGYYMHWVRQAPGQGLEWMGWINPNSGGTNYAQKFQGRVTMTRDTSISTAYMELSRLRSDDTAVYYCATDSFDYWGQGTMVTVSS
VL: not shown
notes: phage scFv
B4: hN1S3-036 (scFv, V domains shown)
VH: EVQLVQSGAEVKKPGASVKVSCKASGYNFTGYYMHWVRQAPGQGLEWMGWINPNSGGTNYAQKFQGRVTMTRDTSISTAYMELSRLRSDDTAVYYCATDSFDYWGRGTMVTVSS
VL: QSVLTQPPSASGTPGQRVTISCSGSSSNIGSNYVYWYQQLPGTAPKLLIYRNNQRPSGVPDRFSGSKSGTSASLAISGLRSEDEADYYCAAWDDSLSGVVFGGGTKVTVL
notes: phage scFv
B5: hN1S3-038 (scFv, V domains shown)
VH: EVQLVQSGAEVKKPGASVKVSCKASGYNFTGYYMHWVRQAPGQGLEWMGWINPNSGGTNYAQKFQGRVIMTRDTSISTAYMELSRLTSDDTAVYYCATDSFDYWGRGTTVTVSR
VL: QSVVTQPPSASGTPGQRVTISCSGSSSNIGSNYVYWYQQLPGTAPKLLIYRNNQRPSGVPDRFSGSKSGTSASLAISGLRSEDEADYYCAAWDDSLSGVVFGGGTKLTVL
notes: phage scFv
B6: hN1S3-055 (scFv, V domains shown)
VH: QVQLVQSGAEVKKPGASVKVSCKASGYNFTGYYMHWVRQAPGQGPEWMGWINPNSGGTNYAQKFQGRVTMTRDTSISTAYMELSRLRSDDTAVYYCATDSFDYWGRGTMVTVSS
VL: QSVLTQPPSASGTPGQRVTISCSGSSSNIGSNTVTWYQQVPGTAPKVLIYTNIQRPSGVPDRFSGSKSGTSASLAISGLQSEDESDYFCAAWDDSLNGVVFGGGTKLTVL
notes: phage scFv
B7: hN1S3-091 (scFv, V domains shown)
VH: EVQLVQSGAEVKKPGASVKVSCKASGYNFTGYYMHWVRQAPGQGLEWMGWINPNSGGTNYAQKFQGRVTMTRDTSISTAYMELSRLRSDDTAVYYCATDSFDYWGQGTMVTVSS
VL: QSVLTQPPSATGTPGQTVSISCSGGNSNIGSNYVSWYQQLPGTAPKLLIYSNNQRPSGVPDRFSGSKSGTSASLAISGLQSEDEADYYCAAWDDSLNGHIFGTGTKLTVL
notes: phage scFv
B8: hN1S3-092 (scFv, V domains shown)
VH: EVQLVQSGAEVKKPGASVKVSCKASGYNFTGYYMHWVRQAPGQGLEWMGWINPNSGGTNYAQKFQGRVTMTRDTSISTAYMELSRLRSDDTAVYYCATDSFDYWGQGTLVTVSS
VL: QSVLTQPPSASGTPGQRVTISCSGSSSNIGANYVYWYQQLPGTAPKLLIYKNDQRPSGVPDRFSGSKSGTSASLAISGLRSEDEADYYCAAWDDSLSGLVFGGGTKVTVL
notes: phage scFv
B9: hN1S3-095 (scFv, V domains shown)
VH: EVQLVQSGAEVKKPGASVKVSCKASGYNFTGYYMHWVRQAPGRGLEWMGWINPNSGGTNYAQKFQGRVTMTRDTSISTAYMELSRLRSDDTAVYYCATDSFDYWGQGTLVTVSS
VL: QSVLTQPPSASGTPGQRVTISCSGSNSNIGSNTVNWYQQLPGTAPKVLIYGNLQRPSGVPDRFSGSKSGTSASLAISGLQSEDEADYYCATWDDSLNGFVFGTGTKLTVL
notes: phage scFv
B10: hN1S3-096 (scFv, V domains shown)
VH: EVQLVQSGAEVKKPGASVKVSCKASGYNFTGYYMHWVRQAPGQGLEWMGWINPNSGGTNYAQKFQGRVTMTRDTSISTAYMELSRLRSDDTAVYYCATDSFDYWGRGTTVTVSS
VL: QPVLTQPPSASGTPGQRVTISCSGSSSNIASNSVYWYQQLPGTAPKLLIYRNNQRPSGVPDRFSGSQSGASASLAISGLRSEDEADYYCAAWDDNLYGVVFGGGTKLTVL
notes: phage scFv
B11: hN1S3-124 (scFv, V domains shown)
VH: EVQLVQSGAEVKKPGASVKVSCKASGYNFTGYYMHWVRQAPGQGLEWMGWINPNSGGTNYAQKFQGRVTMTRDTSISTAYMELSRLRSDDTAVYYCATDSFDYWGRGTTVTVSS
VL: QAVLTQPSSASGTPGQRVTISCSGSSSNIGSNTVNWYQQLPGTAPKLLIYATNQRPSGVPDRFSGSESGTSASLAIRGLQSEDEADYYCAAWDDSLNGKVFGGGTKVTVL
notes: phage scFv
B12: hN1S3-181 (scFv, V domains shown)
VH: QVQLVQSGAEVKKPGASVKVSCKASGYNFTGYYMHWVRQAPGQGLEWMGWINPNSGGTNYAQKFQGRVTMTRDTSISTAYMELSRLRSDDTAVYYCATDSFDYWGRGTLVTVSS
VL: SYVLTQPPSASGTPGQRVTISCSGSSPNIGSNTVNWYQQLPGTAPKLLIYTNNQRPSGVPDRFSGSKSATSASLAISGLQFDDEADYFCAAWDDSLLGVVFGGGTKVTVL
notes: phage scFv
B13: hN1S3-053 (scFv, V domains shown)
VH: EVQLVQSGAEVKKPGASVKVSCKASGYNFTGYYMHWVRQAPGQGLEWMGWINPNSGGTNYAQKFQGRVTMTRDTSISTAYMELSRLRSDDTAVYYCATDSFDYWGRGTTVTVSS
VL: QAVLTQPSSVSGAPGQRVTISCTGSRSNIGAGYDVHWYQQLPGTAPKLLIYGNSNRPSGVPDRFSGSKSGTSASLAITGLQAEDEADYYCQSYDSSLSGSVFGGGTKLTVL
notes: phage scFv
B14: hN1S3-032 (scFv, V domains shown)
VH: EVQLVQSGAEVKKPGASVKVSCKASGYNFTGYYMHWVRQAPGQGLEWMGWINPNSGGTNYAQKFQGRVTMTRDTSISTAYMELSRLRSDDTAVYYCATDSFDYWGKGTLVTVSS
VL: QAVLTQPSSVSGAPGQRVTISCTGSSSNIGAGYDVHWYRQLPGTAPKLLLYGNDNRPSGVPDRFSGSKSGASASLAITGLRADDEADYYCQSYDSSLSGSVFGGGTKVTVL
notes: phage scFv
B15: hN1S3-182 (scFv, V domains shown)
VH: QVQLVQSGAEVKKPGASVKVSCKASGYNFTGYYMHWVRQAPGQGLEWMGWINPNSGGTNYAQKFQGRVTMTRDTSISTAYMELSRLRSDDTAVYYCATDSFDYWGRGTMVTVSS
VL: QAVLTQPSSVSGAPGQRVTISCTGSSSNIGSPYDVNWYQQFPGTAPKLLIYGNINRPSGVPDRFSGSKSGTSASLAITGLQAEDEADYYCQTYDSTLNGAVFGGGTKLTVL
notes: phage scFv
B16: hN1S3-003 (scFv, V domains shown)
VH: EVQLVQSGPEVKKPGTSVKVSCKASGFTFTNSAVQWVRQARGQRLEWIGWIVVGSGNTNYAQKFQERVTITRDMSTSTAYMELSSLKSEDTAVYYCVADTVYWGQGTLVTVSS
VL: not shown
notes: phage scFv
B17: N1wc11 (scFv, V domains shown)
VH: EVQLVQSGPEVKKPGTSVKVSCKASGFTFTNSAVQWVRQARGQRLEWIGWIVVGSGNINYAQKFQERVTITRDMSTSTAYMELSSLKSEDTAVYYCVADTVYWGRGTMVTVSS
VL: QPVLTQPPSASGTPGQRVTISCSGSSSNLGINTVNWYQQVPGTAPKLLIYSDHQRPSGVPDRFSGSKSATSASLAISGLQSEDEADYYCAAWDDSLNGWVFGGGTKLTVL
notes: phage scFv
B18: hN1S3-007 (scFv, V domains shown)
VH: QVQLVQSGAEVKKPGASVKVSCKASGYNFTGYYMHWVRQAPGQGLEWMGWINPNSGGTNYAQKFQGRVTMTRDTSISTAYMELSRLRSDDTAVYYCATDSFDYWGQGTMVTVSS
VL: QAVLTQPSSVSGTPGQRVTMSCSGGRSNIGSNAVNWYQQFPGTAPKLLMYNTNQRPSGVPGRFSGSKSGASASLAISGLQSDDEADYYCSSWDDSLNGLEFGGGTKLTVL
notes: phage scFv
B19: N1wc266 (scFv, V domains shown)
VH: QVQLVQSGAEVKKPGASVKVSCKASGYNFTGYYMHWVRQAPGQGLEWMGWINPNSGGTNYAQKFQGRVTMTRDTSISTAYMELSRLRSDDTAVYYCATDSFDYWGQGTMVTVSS
VL: QAVLTQPSSVSGTPGQRVTMSCSGGRSNIGSNAVNWYQQFPGTAPKLLMYNTNQRPSGVPGRFSGSKSGASASLAISGLQSDDEADYYCSSWDDSLNGLEFGGGTKLEIK
notes: phage scFv

Key:
[1] = biological target: T1, human full-length Notch1 with C-terminal FLAG tag, stably expressed on 293 FlpIn (TREx) cells (human, UniProt P46531 19-2555); test: FACS, phage scFv
T1 construct: tetracycline/doxycycline-induced expression from pcDNA5/FRT/TO-HN1+FLAG; also called hN1; 293_N1

[2] = biological target: T2, human full-length Notch3 with C-terminal FLAG tag, stably expressed on 293 FlpIn (TREx) cells (human, UniProt Q9UM47 40-2321); test: FACS, phage scFv
T2 construct: whole, on cells; made by the same strategy as the Notch1 line; also called 293-N3; hN3

| Binder | binding result [1] | binding result [2] |
| --- | --- | --- |
| B1 | binds | binds |
| B2 | binds | binds |
| B3 | binds | binds |
| B4 | binds | binds |
| B5 | binds | binds |
| B6 | binds | binds |
| B7 | binds | binds |
| B8 | binds | binds |
| B9 | binds | binds |
| B10 | binds | binds |
| B11 | binds | binds |
| B12 | binds | binds |
| B13 | binds | binds |
| B14 | binds | binds |
| B15 | binds | binds |
| B16 | binds | binds |
| B17 | binds | binds |
| B18 | binds | binds |
| B19 | binds | binds |
